Publication PMC8538406

Molecular target: CCR7-FKBP (DmrA) receptor chimaera, CCR7-M

With “CXCR4-FRB (DmrC) receptor chimaera, CXCR4-H” the Matrigel transwell invasion of co-transfected MDA-MB-231 cells with ACH (AP21967), towards CCL19 and CXCL12 together was > 50%.
